Source: the domain aggregation screens of Martell et al. (2025)

assay: soluble fraction after stress (log2 fold change); higher = more stays soluble; pooled small domains, quantitative proteomics; settings: stress: 50 degC
How it was run: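 The stress applied to every library was 50°C. These custom libraries of small protein domains were pooled and measured at high throughput with quantitative proteomics as the read-out. Aggregation propensity is expressed as the base-two logarithm of the fold change in how much of each protein remains soluble. The higher the value, the more of that protein stays in solution.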

Row | Sequence | soluble fraction (log2)
1 | HMRYVVQVATFSSKNNAIRAADDLAGFVVVSNGYYRVRTGPYADRGEANAALAKARKAGYTDAFVDTS | -0.798
2 | HMDRFVLQLSKRYYDSSIEGVRKALAAFPVKTELLDQDRGGRPFYHENGKENEPVFRIMFHPEEGM | -0.542
3 | HMKSILDDVVGLGPVRKKALLSAAGGFRKLRDMDVDEVIGLGAVPEEVAREVVTVLAQYNGERDRVEGL | -0.0545
4 | HMAGGNHPTRLELLDSAAHIAERDGTSALTVDAITKSAGHAKGTFYIHFDDRADLLVEMHRR | -0.183
5 | HMNLDYKQFQVFNNIETLNTFTNLLSDNKIDFEVENNSKIFDPSFANNDFEKEYIVKIHPNDFEKVY | 0.064
6 | HMNLGDLYVIMEIAGQRDDVSARLMNREGQTFLVKTGTKLKSGDVVKEITPTYIKTDHDGEEAFLYF | -0.542
7 | HMNSEERVLDTASKWLVKLDEGLDESEAQVLKVWLATPLHRDTFLEMVALWDKMSVLNELADIV | -1.78
8 | HMKSAIKQNILLYLSNKGVTSYEFYKISGVTRGILQQSNGISEDNIAKFLAYAPDVNIEWLLTGKGDMLKH | -1.32
9 | HMIVDARNREINLGSHVRYVDTGTVGEVTDSKVENDASWVKIDKTNLWYLANKLELLNDEDFKT | 0.0653
10 | HMPQIDLYPFEVRIEQDNNAAEYAVRFLDVPNIIGSGASIDEAIVEARGNLKEYLDYLIDTNRDIPLPS | -0.412
11 | HMDSAMMDLVMRVQLALFTKGYDVGIIDGKIGPKTRAQIKRYQSDNRLSSTGTLTTSLLTSLGIQ | -1.88
12 | HMTAVPADVETVTGFTALDRAGLDTLLARLGLAMDLEDLSFLQAYFRDTERRDPTLTEIRVVDTYWSDH | -1.38
13 | HMRPYAYGTGRRKSSTARVHLIPNGSGSITINGRTLDEYFGLETLKLIVRQPLAATETAEKFDVEATVV | -0.415
14 | HMKNSIKLDNFVGMSYDEVISNKEYDFNFVSAFEKTSDYEAGTIIGQTPAAEERVMVGTTVTLTVAQP | 0.0342
15 | HMVELGMSQNEFIQKFGKPFNKEMAYTYDKHKRETLFYKEDLYRGSWFIVTTAFTFVDSKLVSQEIVREER | -3.41
16 | HMPKSKTPDDAAEEFRTAFSALDMDGKVTVKDMAEYMGVIDKTVYARLKKMGDEFTLDKGVITKKT | -0.0532
17 | HMLKDGPIGAYADSVIRDIIEKMERFSKEHINVDMLKIHEKIMLIDEPIIRMALLDEFHRVSHDN | -2.09
18 | HMAQNILPGQKNAIKSLATSAGFSQQELDSYLSQNYGKTLNNLSQKEGASLISGLQDGSIKKP | 0.352
19 | HMYGTERILAQLANYGIPNKLAFQIQDFYKEETLQIVEQQPYRLVEDIQGMGFKIADQLAEELGI | -0.317
20 | HMNEFAYLIKISPEHNNNRYYRMVAEGDNFRIEMGRIGASPVQMKRPMYLWNETYQKKLQEGYTDRTSYTS | -1.92
21 | HMAPEKLVHELVGLSLRAGNLDLLAATLSAHKTVLSKESTAEYVKAGLAIEPNHLPLRVLAEQDLGWS | -0.57
22 | HMTLHDLFPQAVEFVSEKEMISTAELQRKLMISYNSAAKIIDQLLHVDFIQKSESAGKYSVLIK | -2.31
23 | HMQPNVTRERILAAAMTVFAQKGWQKTSLDEVAAAAGMTKGAIYWHFRNKNDLFFALLDARLQRD | -1.97
24 | HMSDLFKYSPYKTLTEEQYKITYQIIERLKTDLSNGIPRISIIDGGAGTGKSILGIFLLKLLVDAQN | 0.343
25 | HMRVELVVVPELRQQLLPEARELANSAGLQLRVRGQSPADETRTIVVTQSPAAGTRVAARSIVLVE | -0.539
26 | HMEIFSIEPDSYLGSGEEIASYYREGVTVIVNMAKLSDAESLRMVDFMSGLKLALLGNIKRITKHVYLLTP | -0.0901
27 | HMGQELTPVERTALDIAARDGKVSTRILAQEAGIGLRTASKTLAALAERGLLTWHGTSRRDPQQHYTS | 0.00201
28 | HMSLLTPLEEARIVIEELIIPQKLTLDLLPQNSQIRKLQHEIINHYRLKGISIGDGKNRRVRIYS | -0.133

Row | Sequence | soluble fraction (log2)
29 | HMIEGSSDWKPNMILDDGGDLTKIIHEEYQDLLDDIRGLSEETTTGVLRLYEMEKENSLAVPAINVND | 0.276
30 | HMELGYTPNNLRSVRAKYGLTQKQVAEITGLKTWHPVNRWEAPVEAAYHADMPHTKWLKLLDELSSR | -0.993
31 | HMDAYLPETVQKLLDVMDFDVPYSAAQLMEKLGLKSRASFRKLYLLPALEKNLIAMGVPDKPTSRNQTYIR | -0.417
32 | HMNEKAALIFNEWSDFVSKDDEANAQIKFDELITLYKKTGYTKIALLEVATKQASNGDIEGALAKYSLLID | 0.208
33 | HMGGKWKLRILLALENSAQDALRYGEIKNIVSGITDMMLSQSLRELTADGLIERRQYQEIPPKVEYRLS | -2.51
34 | HMGGNDALEIAKSNPQVIEVLGEPVTKDGMGSYSVNYKNGHKTSEATIPIEGPNGTATLHVKTSGSDDAL | 0.261
35 | HMTVPAGIVLSSIRQDGDVLHIRGTAQSTERLNFFRNSFSASWGSPAQNGKRKADPVTGLVDFTISLK | -0.677
36 | HMKGERHNKILELIQQHAIDRQEDLLRYLKEAGFQVTQATVSRDIRELHLVKVAAGGGQYRYVSAAAAS | -0.0903
37 | HMTGSETLQDIFAHLEAGTVRTALSLIPRLDAVEYEQNRQRIAELAGVRPSALDDLRKQAKREEN | 0.519
38 | HMKQLIGYSVIDIKMGKLGEISFVNSKTAQALIHVSKDGKGFYFPWHKQFVKNIDAEKGIMEVEIPKEFLD | -0.237
39 | HMSILEIFGRNVQKYRKEQRLSQEKLAEYAGLHRTYIGMIERAEKNITLVNIEKIAKALNINLTKLLE | -3.14
40 | HMDSILMPGVVNKELREALAILKNEGIGWADPEYASSTVTRNYVISTDPVEGIELAPGQKVRLVVSLGPKP | -0.00706
41 | HMRLNIRTKNNYSYYTIIKDYTNLNGKRTTTIFEKLGNQQQVEERFGKVNTIENIKKYIEELNNE | -1.23
42 | HMDRVTYPVSFNGKVRFQLELDAGMNAKEVETAALGHEKTAAQIEGKTIRKVIVVPGRIINIVV | -0.259
43 | HMDDVIEVEGKVVEVLPNTKFIVELANSHKITAHISGKLRMNYIRIMKGDNVTVEMSPYDLTKGRIIWRS | -0.00397
44 | HMETKPTELMLDVHKLRIGMFVYLDLGWMDHPFPLNRFKISTNAQIEQIKGLRLKQVKVMTALSDPASLL | -3.19
45 | HMLSEKELLELLNRAKSNYNGITKKGIEAIALKYQGYSNVEIANLYHVKANHISAWISRARSRLKADY | 0.193
46 | HMYTEIDDVKDLLSKIPSVNKLTTADRGMVQAARNAYDALDEDQKLYITIADVEKFNAAVEWMEEH | 0.0056
47 | HMRDTAKTLLAMEVVGENNKKNLQAFGIQKGDQNYQTAVVVRLMQKALMEGDTSAIRLIGELTGD | -0.197
48 | HMIIIMKKSATNSEVRKVIERAEKEGLTVQVNQLEKQQVLGLVGDTRLIQDVAFLRYEGVENVERI | -0.776
49 | HMKNDKLLIFMELKGISRTQLSKSTGIPASTLGRIINGDVQKIKAVYMEAIANALDTSIHTIFDV | -1.27
50 | HMQAGILTDTAAKNARIKKIDTERLEAELDQKRIVIVTGFQGVDRNQNITTLGRGGSDTSAVALAAAVSIT | 0.185
51 | HMVAADTVQVPDVTGKTVADAKQALISAGLQVGTVTAKDGKETANTILETSPAAGTSVDKGSKVNLVYSTG | -0.185
52 | HMVTDSGEIEKLVDEVIDNNPDQVQQFREGKQQVLSYLVGQAMKLSRGKANPNQVNQFLRDKL | 0.291
53 | HMGEQLALLERARTLLEDETLETEVQKELEMLLEDIEAARAEANATQLEDLFEELADLLFDLE | -0.0786
54 | HMLSDADLAAFREVFDLVDKDKSGAIEMEEVEELTKLLGLDLTRDEVELLVREIDKDGNGEVDFEEFLLVM | 0.0193
55 | HMFQTAADVAYRIISQKILDGEFPPGMKLSRRKMAEVTSVSVIPVIEALKKLEEDGLVESKPQWGSFVTI | -1.27
